From publication PMC8569185 (Frontiers in Pharmacology, 2021)

B1: blenniorphin 1–8 (peptide)
peptide: YGGFMRRV
notes: numbers count on: the dyn A 1–17-like peptide, not the precursor; Free N-terminus and free C-terminal carboxyl as printed (NH2-...-COOH); source: synthetic peptide (Boc-based SPPS, RP-HPLC purified)
B2: blenniorphin 1–13 (peptide)
peptide: YGGFMRRVGRPEW
notes: numbers count on: the dyn A 1–17-like peptide, not the precursor; Free N-terminus and free C-terminal carboxyl as printed (NH2-...-COOH); also called blenniorphin-13; source: synthetic peptide (Boc-based SPPS, RP-HPLC purified)
B3: blenniorphin 1–17 (peptide)
peptide: YGGFMRRVGRPEWLVDS
notes: numbers count on: the dyn A 1–17-like peptide, not the precursor; Free N-terminus and free C-terminal carboxyl as printed (NH2-...-COOH); also called blenniorphin-17; source: synthetic peptide (Fmoc-based SPPS, RP-HPLC purified)

The molecules below were run against mouse KOR-EGFP (mouse, UniProt P33534 1-380) (assay: cell-based or functional assay). Details: not given.
mouse KOR-EGFP, sequence (P33534 whole entry): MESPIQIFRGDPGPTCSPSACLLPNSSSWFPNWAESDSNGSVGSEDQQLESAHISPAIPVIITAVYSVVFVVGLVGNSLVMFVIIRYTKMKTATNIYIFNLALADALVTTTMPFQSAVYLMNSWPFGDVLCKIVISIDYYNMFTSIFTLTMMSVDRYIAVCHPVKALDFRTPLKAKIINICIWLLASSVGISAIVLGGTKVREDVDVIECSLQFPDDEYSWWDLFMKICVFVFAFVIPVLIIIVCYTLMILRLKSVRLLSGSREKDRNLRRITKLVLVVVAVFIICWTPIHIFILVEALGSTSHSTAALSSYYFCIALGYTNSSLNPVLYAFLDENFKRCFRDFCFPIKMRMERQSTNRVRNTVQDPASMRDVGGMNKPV

| Molecule | extent of β-arrestin-2-Nluc recruitment to KOR-EGFP (BRET) at 10 µM peptide, relative to 10 µM dyn A 1–13 (100%) [% lower than dyn A 1–13] |
| --- | --- |
| B1 | ~30 |
| B2 | ~30 |
| B3 | ~30 |

What follows are molecules tested against mouse KOR (Mus musculus, UniProt P33534) (assay: cell-based). Details: HEK293, read-out: Efficacy cAMP Emax ± SD.
mouse KOR, sequence (P33534 whole entry): as above

| Molecule | Emax at 10 µM [%] |
| --- | --- |
| CSCC[C@H](NC(=O)[C@H](Cc1ccccc1)NC(=O)CNC(=O)CNC(=O)[C@@H](N)Cc1ccc(O)cc1)C(=O)N[C@@H](CCCNC(=N)N)C(=O)N[C@@H](CCCNC(=N)N)C(=O)N[C@H](C(=O)O)C(C)C [blenniorphin 1–8] | 82.4 ± 9.8 |
| H-YGGFMRRVGRPEW-OH [blenniorphin 1–13] | 98.5 ± 9.1 |
| H-YGGFMRRVGRPEWLVDS-OH [blenniorphin 1–17] | 97.5 ± 11 |

Each molecule was assayed against T1, mouse κ-opioid receptor (mouse, UniProt P33534 1-380) (assay: cell-based or functional assay). Details: not given.
T1 sequence (P33534 whole entry): as above

| Molecule | EC50 of inhibition of forskolin-stimulated cAMP accumulation (HTRF cAMP-Gi kit), HEK293 cells stably expressing mouse KOR [nM] | Emax of cAMP inhibition, normalised to 10 µM dyn A 1–13 (100%), HEK293 cells stably expressing mouse KOR [%] |
| --- | --- | --- |
| B1 | 3.6 | 82.4 |
| B2 | 5 | 98.5 |
| B3 | 15.2 | 97.5 |

Each molecule was assayed against T1, mouse κ-opioid receptor (assay: radioligand binding; displacement of [3H]-diprenorphine (1 nM) from HEK293 cell membranes stably expressing mouse KOR (6.3–7.6 µg/assay) by peptides (0.1 nM–30 µM); 50 mM Tris-HCl pH 7.4, 10 mM MgCl2, 0.1% BSA; 1.5 h at 37°C; filtration; Ki from IC50 by Cheng and Prusoff). Details: one partner purified.

| Molecule | Ki [nM] |
| --- | --- |
| B1 | 3.3 |
| B2 | 116 |
| B3 | 85.8 |
